Data from the supplement of paper PMC7125110.
± gives the standard error. For some assays here: Fewer inactive variants are shown than the library holds.

B1: glmS ribozyme (parent)
chain: AUAAAAGCGCCAGAACUACAGAAAUGUAGUUGACGAGGAGGAGGUUUAUCGAAUUUUCGGCGGAUGCCUCCAAA

How the values were obtained:
Settings in all cases: with glucosamine-6-phosphate
[1] = variants of: B1; assay: kcat; higher = faster cleavage; RNA array
Outline: (§1)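 Sequenced MiSeq chips were the platform: E. coli RNA polymerase transcribed barcoded ribozyme variants on them in situ, and a hybridised Cy3 probe tracked these at 37 °C. After glucosamine-6-phosphate (40 μM to 10 mM) in HEPES/KCl/Mg(OAc)2 buffer was flowed in, tiles were imaged over ~14 h. Signals normalised to baseline and to non-cleaving reference variants were reduced to per-tile medians and fit to one- or two-exponential decays to obtain kobs. kcat and KM were derived through weighted Michaelis–Menten fits across concentrations.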

[2] = variants of: B1; assay: KM; higher = weaker cofactor use; RNA array
Outline: as §1

[3] = variants of: B1; assay: self-cleavage kobs at 160 uM GlcN6P; higher = faster cleavage; RNA array
Outline: as §1

[4] = variants of: B1; assay: self-cleavage kobs at 640 uM GlcN6P; higher = faster cleavage; RNA array
Outline: as §1

[5] = variants of: B1; assay: self-cleavage kobs at 2500 uM GlcN6P; higher = faster cleavage; RNA array
Outline: as §1

[6] = variants of: B1; assay: self-cleavage kobs at 10000 uM GlcN6P; higher = faster cleavage; RNA array
Outline: as §1

[7] = variants of: B1; assay: self-cleavage kobs at 40 uM GlcN6P; higher = faster cleavage; RNA array
Outline: as §1

Row | Variant | kcat [1] | KM [2] | self-cleavage kobs at 160 uM GlcN6P [3] | self-cleavage kobs at 640 uM GlcN6P [4] | self-cleavage kobs at 2500 uM GlcN6P [5] | self-cleavage kobs at 10000 uM GlcN6P [6] | self-cleavage kobs at 40 uM GlcN6P [7]
1 | AUAAAAGCGCCGGAGCUACAGAAAUGUAGUUGACGAGGAGGAGGUUUAUCGAAUUUUCGGCGGAUGCCUCCAAA | 0.000505 ± 0.00012 s⁻¹ | 4550 ± 1800 µM | 2.24e-05 ± 1e-05 s⁻¹ | 7.71e-05 ± 9.2e-06 s⁻¹ | 0.000155 ± 1.5e-05 s⁻¹ | 0.000371 ± 3.2e-05 s⁻¹ | –
2 | AUAAAAGCGCCGGAACUACAGAAAUGUAGUUGACGAGGAGGAGGUUUAUGGAAUUUUCGGCGGAUGCCUCCAAA | 1.17e-05 ± 2.1e-06 s⁻¹ | – | – | – | – | – | –
3 | AUAAAAGCGCCGGAACUACAGAAAUGUAGUUGACGAGGCGGAGGUUUAUCGAAUUUUCGGCGGAUGCCUCCAAA | 0.000267 ± 1.7e-05 s⁻¹ | 2130 ± 300 µM | – | 6.42e-05 ± 1.1e-05 s⁻¹ | 0.000144 ± 1.2e-05 s⁻¹ | 0.00022 ± 2.2e-05 s⁻¹ | –
4 | AUAAAAGCGCCCGAACUACAGAAAUGUAGUUGACGAGGAGGAGGUUUAUCGAAUUUUCGGCGGAAGCCUCCAAA | 0.00216 ± 0.00024 s⁻¹ | 2790 ± 570 µM | 0.000134 ± 3.3e-05 s⁻¹ | 0.000345 ± 6.5e-05 s⁻¹ | 0.000932 ± 0.00017 s⁻¹ | 0.00173 ± 0.00015 s⁻¹ | 3.82e-05 ± 8.1e-06 s⁻¹
5 | AUAAAAGCGCCGGAACUACAGAAAUGUAGUUGACGAGGAGGAGGUUUAUCGAAUUUUAGGCGGAUGCCUCCAAA | 0.000476 ± 0.0001 s⁻¹ | 1510 ± 610 µM | 4.69e-05 ± 1.3e-05 s⁻¹ | 0.000154 ± 1.7e-05 s⁻¹ | 0.000245 ± 3.3e-05 s⁻¹ | 0.000523 ± 7.4e-05 s⁻¹ | –
6 | AUAAAAGCGCCGGAACUACAGAAAUGUAGUUGACGAGGAGGAGGUUUAUCGAAUUUUGGGCGGAUGCCUCCAAA | 0.000117 ± 1.9e-05 s⁻¹ | – | – | – | 7.99e-05 ± 1.2e-05 s⁻¹ | 9.48e-05 ± 9.8e-06 s⁻¹ | –
7 | AUAAAAGCGCCGGAACUACAGAAAUGUAGUUGUCGAGGAGGAGGUUUAUCGAAUUUUCGGCGGAUGCCUCCAAA | 1.86e-05 ± 6.4e-06 s⁻¹ | – | – | – | – | < 1e-05 s⁻¹ | < 1e-05 s⁻¹
8 | AUAAAAGCGCCGGAACUACAGAAAUGUAGUUGACGAGGAGGAGGUUUAUCGAAUUUUCGGCGGGUGCCUCCAAA | 0.000701 ± 0.00021 s⁻¹ | 2560 ± 1100 µM | 6.59e-05 ± 1.7e-05 s⁻¹ | 0.000128 ± 1.7e-05 s⁻¹ | 0.000367 ± 5.3e-05 s⁻¹ | 0.000537 ± 0.00017 s⁻¹ | –
9 | AUAAAAGCGCCGGAACUACAGAAAUGUAGUUGACGAGGAGGAGGUUUAUCGAAUUUUCGGCGGCUGCCUCCAAA | < 1e-05 s⁻¹ | – | – | – | – | – | < 1e-05 s⁻¹
10 | AUAAAAGCGCCCGAACUACAGAAAUGUAGUUGACGAGGAGGAGGUUUAUCGAAGUUUCGGCGGAUUCCUCCAAA | 0.00175 ± 0.00085 s⁻¹ | – | 8.77e-05 ± 1.3e-05 s⁻¹ | 0.000245 ± 5.3e-05 s⁻¹ | 0.000495 ± 0.00014 s⁻¹ | 0.00164 ± 0.00028 s⁻¹ | 5.6e-05 ± 1.7e-05 s⁻¹
11 | AUAAAAGCGCCGGAACUACAGAAAUGUAGUUGGCGAGGAGGAGGUUUAUCGAAUUUACUGCGGAUGCCUCCAAA | < 1e-05 s⁻¹ | – | – | < 1e-05 s⁻¹ | < 1e-05 s⁻¹ | – | –
12 | AUAAAAGCGCCGGAACUACAGAAAUGUAGUUGACGAGGAGGAGGUUUAUCGAAUUUUCGGCGGAUGACUCCAAA | 0.000389 ± 8.6e-05 s⁻¹ | 2400 ± 880 µM | 4.4e-05 ± 1e-05 s⁻¹ | 7.88e-05 ± 8.7e-06 s⁻¹ | 0.000186 ± 2.1e-05 s⁻¹ | 0.000343 ± 4.8e-05 s⁻¹ | –
13 | AUAAAAGCGCCGGAACUACAGAAAUGUAGUUGACGAGGAGGAGGUUUAUCGGAUUUUCGGCGGAUGCCUCCAAA | 3.09e-05 ± 1e-05 s⁻¹ | – | – | – | 5.02e-05 ± 1.5e-05 s⁻¹ | 2.49e-05 ± 8.8e-06 s⁻¹ | –
14 | AUAAAAGCGCCGGAAUUACAGAAAUGUAGUUGAGGAGGAGGAGGUUUAUCGAAUUUUCGGCGGAUGGCUCCAAA | 1.6e-05 ± 3.8e-06 s⁻¹ | – | – | – | – | – | –
15 | AUAAAAGCGCCGGAACUACAGAAAUGUAGUUGACGAGGAGGAGGUUUAUCGAAUUUUCGGCGGAUGGAUCCAAA | 6.18e-05 ± 2.3e-05 s⁻¹ | – | 6.68e-05 ± 1.8e-05 s⁻¹ | 0.000113 ± 2.6e-05 s⁻¹ | 6.87e-05 ± 1.8e-05 s⁻¹ | – | –
16 | AUAAAAGCGCCCGAACUACAGAAAUGUAGUUGACGAGGAGGAGGUUUAUCGAAUUGUCGGCGGAUGCCUCCAAA | 0.0146 ± 0.003 s⁻¹ | 3360 ± 910 µM | 0.000652 ± 0.00018 s⁻¹ | 0.00336 ± 0.00068 s⁻¹ | 0.0054 ± 0.0014 s⁻¹ | 0.0111 ± 0.0018 s⁻¹ | 0.000162 ± 2.5e-05 s⁻¹
17 | AUAAAAGCGCCCGAACUACAGAAAUGUAGUUGACGAGGAGGAGGUUAAUCGAAUUUUCGACGGAUGCCUCCAAA | < 1e-05 s⁻¹ | – | – | – | – | – | –
18 | AUAAAAGCGCCGGAGCUACAGAAAUGUAGUUGACGAGGAGGAGGUUUAUCGAAUUUUCGGCGGAUGCCUACAAA | 0.000107 ± 1.9e-05 s⁻¹ | 2120 ± 890 µM | – | – | 5.85e-05 ± 1.1e-05 s⁻¹ | 8.6e-05 ± 3.1e-05 s⁻¹ | –
